We go through 2 molecules from publication PMC3785238 (Cell, 2013).

One assay relates to mGluR5. The assay can be described thus: mGluR5 phosphorylation in cultured striatal neurons. The assay is classed as cell-based. The note with it: primary striatal cultures.
The next assay concerns mGluR5-SIC. The assay is classed as cell-based, mouse.
Another assay has as its system Pin1-mGluR5 binding. Briefly: Co-immunoprecipitation of Pin1 and mGluR5 in HEK293T cells. Particulars: no other Homer. The assay is classed as cell-based.

B1: BDNF: TrkB receptor ligand (protein, UniProt P21237 19-249, looked up)
Neurotrophic factor BDNF …: APMKEVNVHGQGNLAYPGVRTHGTLESVNGPRAGSRGLTTTSLADTFEHVIEELLDEDQKVRPNEENHKDADLYTSRVMLSSQVPLEPPLLFLLEEYKNYLDAANMSMRVRRHSDPARRGELSVCDSISEWVTAADKKTAVDMSGGTVTVLEKVPVSKGQLKQYFYETKCNPMGYTKEGCRGIDKRHWNSQCRTTQSYVRALTMDSKKRIGWRFIRIDTSCVCTLTIKRGR
On to B1, for which the “mGluR5 phosphorylation in striatal cultures” value in the assay on mGluR5 is given as “increases mGluR5 phosphorylation”. In addition, in the assay on mGluR5-SIC (BDNF 10 ng/ml, 10 min, WT neurons, n = 14, 40-min monitoring), the “mGluR5-SIC amplitude or duration, WT neurons” value is recorded as “did not alter the amplitude or duration”. For the same molecule, the “mGluR5-SIC potentiation, WT neurons pretreated with KCl” value in the assay on mGluR5-SIC (BDNF 10 ng/ml, 10 min, after KCl pretreatment, n = 6, p < 0.05) is ~ 1.5 fold. The “mGluR5-SIC potentiation, Grm5AA/AA neurons” value in the assay with mGluR5-SIC (BDNF 10 ng/ml, 10 min, Grm5AA/AA n = 8, or Homer1a-expressing n = 8) is listed as “not potentiated”. The “mGluR5-SIC potentiation, Homer1aW24A mutant or GFP expressing WT neurons” value in the assay with mGluR5-SIC (BDNF 10 ng/ml, 10 min, Homer1aW24A n = 6, GFP n = 5) is reported as “absent”. In addition, in the assay with mGluR5-SIC (BDNF 10 ng/ml, 10 min, Homer1c viral transgene, n = 8), the “mGluR5-SIC potentiation, Homer1c expressing Homer1−/− neurons” value is recorded as “blocked BDNF potentiation”. The “mGluR5-SIC potentiation, Homer1-deficient neurons” value with mGluR5-SIC (BDNF 10 ng/ml, 10 min, Homer1−/−Homer2−/−Homer3−/− (n = 14) or Homer1−/− (n = 11) neurons, charge transfer versus baseline, p < 0.001) was over 2 fold. In addition, in the assay on mGluR5-SIC (BDNF 10 ng/ml, 10 min, Pin1−/− (n = 6) or Homer1a-expressing Pin1−/− (n = 4)), the “mGluR5-SIC potentiation, Pin1−/− neurons” value was “not potentiated”. For the same molecule, in the assay on mGluR5-SIC (BDNF 10 ng/ml, 10 min, n = 6, p < 0.001), the “mGluR5-SIC potentiation, Homer1a expressing WT neurons” value is “potentiated”. Moreover, the “mGluR5-SIC potentiation, Grm5R/R neurons” value in the assay on mGluR5-SIC (BDNF 10 ng/ml, 10 min, n = 7, p < 0.001, no KCl pretreatment or Homer1a expression needed) is reported as “potentiated”. Further, the “mGluR5-SIC potentiation, Homer1a−/− neurons pretreated with KCl” value in the assay on mGluR5-SIC (BDNF after KCl pretreatment, n = 3) was “not in Homer1a^−/− pre-treated with KCl”.

B2: Homer1c: constitutively expressed cross-linking Homer protein (protein)
chain: MGEQPIFSTRAHVFQIDPNTKKNWVPTSKHAVTVSYFYDSTRNVYRIISLDGSKAIINSTITPNMTFTKTSQKFGQWADSRANTVYGLGFSSEHHLSKFAEKFQEFKEAARLAKEKSQEKMELTSTPSQESAGGDLQSPLTPESINGTDDERTPDVTQNSEPRAEPAQNALPFSHSAGDRTQGLSHASSAISKHWEAELATLKGNNAKLTAALLESTANVKQWKQQLAAYQEEAERLHKRVTELECVSSQANAVHSHKTELSQTVQELEETLKVKEEEIERLKQEIDNARELQEQRDSLTQKLQEVEIRNKDLEGQLSELEQRLEKSQSEQDAFRSNLKTLLEILDGKIFELTELRDNLAKLLECS
modifications: left off: tag not named ('Tagged transgenes'), end not stated, state not stated
Consider B2, for which, in the assay with Pin1-mGluR5 binding, the “effect of co-expression on Pin1-mGluR5 binding” value was “reduced Pin1-mGluR5 binding”.
